From PMC11685791, “Noncanonical calcium binding motif controls folding of HopQ1, a Pseudomonas syringae type III secretion effector, in a pH-dependent manner” (Scientific Reports, 2024) come the findings set out here.

Data set [1] deals with Recombinant HopQ1 with a C-terminal 6 × His epitope (Pseudomonas savastanoi pv. phaseolicola 1448A (former Pseudomonas syringae pv. phaseolicola 1448A)) (UniProt Q48BD8). Briefly: SEC-MALS; native (non-reducing) conditions; Superdex 200 10/300GL, 100 mM Tris-HCl, 150 mM NaCl, pH 8.0, 4 °C; 0.4 mg protein per run.
The target is the same in data set [2]. The data set can be described thus: SEC; gel filtration on Superdex 200, reducing conditions with chelating agent (1 mM EDTA).
Data set [3] addresses HopQ1 fused to ECFP or EYFP, expressed in N. benthamiana (Pseudomonas savastanoi pv. phaseolicola 1448A (former Pseudomonas syringae pv. phaseolicola 1448A)) (UniProt Q48BD8). The data set can be described thus: FRET or BRET; FLIM-FRET in nuclei of N. benthamiana leaf cells; donor fused to ECFP, acceptor fused to EYFP, transiently co-expressed; eight to ten nuclei per combination.

Data set [4] deals with the molecule itself. The data set can be described thus: SEC; gel filtration on Superdex 200, reducing conditions with chelating agent (1 mM EDTA).
Data set [5] concerns the molecule itself. Briefly: SEC; gel filtration on Superdex 200 of the calcium-site mutant; 'all the conditions tested' (not listed for the mutant).

“And” between values parts separate entries of the source, which are not always exact repeats. Identical values can stand only once.

Take “Recombinant HopQ1 with a C-terminal 6 × His epitope (from UniProt Q48BD8 1-447) (natural protein)”: the stoichiometry N in data set [1] is 2 and 3; in data set [2], 2.
With Nt14-3-3a-ECFP (natural protein), the FRET efficiency in data set [3] was 14.2%.

B1: RihA, a pyrimidine-specific ribonucleoside hydrolase from E. coli K-12 (enzyme, UniProt P41409 1-311, looked up)
chain: MALPILLDCDPGHDDAIAIVLALASPELDVKAITSSAGNQTPEKTLRNVLRMLTLLNRTDIPVAGGAVKPLMRELIIADNVHGESGLDGPALPEPTFAPQNCTAVELMAKTLRESAEPVTIVSTGPQTNVALLLNSHPELHSKIARIVIMGGAMGLGNWTPAAEFNIYVDPEAAEIVFQSGIPVVMAGLDVTHKAQIHVEDTERFRAIGNPVSTIVAELLDFFLEYHKDEKWGFVGAPLHDPCTIAWLLKPELFTSVERWVGVETQGKYTQGMTVVDYYYLTGNKPNATVMVDVDRQGFVDLLADRLKFYA
notes: RihA (also known as YbeK), pyrimidine-specific ribonucleoside hydrolase of E. coli K-12; also called YbeK; source: E. coli BL21 Rosetta, purified
Consider B1, for which the “stoichiometry N” value in data set [4] is 4.

B2: HopQ1-D107A_D108A (recombinant, 6 × His) (natural protein)
chain: MHRPITAGHTTSRLILDQLKQISRTPSESSVQSALSQQASMSSPVLERSKSAPALLTAAQRTMLAQVGACNSHLTSDENMAINELRLHKPRLPKDTWFFTDPNKDPAAVVTYTLGKQLQAEGFVHITDVVATLGDAEVRSQRAEMAKGVFNKLGLHDVHVSRGRDYAMNSLQSKEHAKFLLEGHALRAGPGEIHRDSLQDMSRRLARAPHGVGIVVIAGMSDINALITTCPDMVRERVDDITIMGGVEPLKDADGFVQPDARAYNNATDMDAARSLYRKAQELGIPLRIVTKEAAYKTAVSPSFYEGIAGSGHPVGHYLRDVQKSALKGLWEGIQAGLLPGLDDSWFFRTFMPNAQIEAAQLDKNKESSFEDIWPKVTKLNLYDPLTLLASVPGAAKLLFKPKAIHTEGFGVVEQVGPDDVTHPEKAKLLMSALAKSALVQSTVAPD
notes: HopQ1 of Pseudomonas savastanoi pv. phaseolicola 1448A, GenBank AAZ37975.1, with D107A and D108A; source: E. coli BL21 Rosetta, purified
Regarding B2, in data set [5], the “stoichiometry N” value worked out at 2.
